Reference: US6558922B1, “Methods and compositions for production of floral scent compounds” (Purdue Research Foundation, priority 1999, dated 2003)
Like-named read-outs stand apart in the source and are kept apart here.

Columns and labels:
E. coli BAMT protein = molecular target: T1, E. coli BAMT protein (Antirrhinum majus, UniProt Q9FYZ9); test: Product inhibition kinetics of methylation reaction by SAH
T1 sequence (Q9FYZ9 1-364): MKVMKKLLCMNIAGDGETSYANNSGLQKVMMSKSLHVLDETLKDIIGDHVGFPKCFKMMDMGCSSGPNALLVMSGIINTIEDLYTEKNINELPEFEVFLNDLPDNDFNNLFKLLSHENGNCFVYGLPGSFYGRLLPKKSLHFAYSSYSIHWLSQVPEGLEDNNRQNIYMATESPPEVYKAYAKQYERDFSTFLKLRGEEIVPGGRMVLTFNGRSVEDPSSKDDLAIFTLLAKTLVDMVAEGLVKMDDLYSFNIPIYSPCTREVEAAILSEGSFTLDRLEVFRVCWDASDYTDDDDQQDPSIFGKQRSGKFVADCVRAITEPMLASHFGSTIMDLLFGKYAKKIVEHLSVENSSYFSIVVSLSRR
Excerpt: Linear regressions were fitted to the data in double-reciprocal plots. Replots of the data were used to determine the kinetic parameters.

BAMT [1] = molecular target: T2, BAMT (Antirrhinum majus, UniProt Q9FYZ9); test: BAMT activity with different substrates in lysates of E. coli expressing BAMT cDNA; format: biochemical; conditions: lysates of E. coli cells expressing BAMT
T2 construct: The enzyme activity was purified from upper and lower petal lobes of 5- to 10-day-old snapdragon flowers; from tissue; host or cells: upper and lower petal lobes of 5- to 10-day-old snapdragon flowers
T2 sequence (Q9FYZ9 1-364): T1 sequence (Q9FYZ9 1-364)
Excerpt: The raw data (counts per minute) were converted to picokatals (picomoles of product produced per second) based on the specific activity of the substrate and efficiency of counting.
(Yamaguchi et al., 1996).

BAMT [2] = molecular target: T2, BAMT; test: BAMT enzyme assay, substrate specificity of plant-purified BAMT (fraction after MonoQ); format: biochemical; conditions: plant BAMT purified through MonoQ, compound tested as substrate instead of benzoic acid
Excerpt: The raw data (counts per minute) were converted to picokatals (picomoles of product produced per second) based on the specific activity of the substrate and efficiency of counting. Controls included assays with boiled protein extracts and without substrate, and background radioactivity produced in such assays was subtracted from all of the results.
The enzyme activity was purified from upper and lower petal lobes of 5- to 10-day-old snapdragon flowers in a series of chromatographic steps involving a DEAE anion exchange column (DE53, Whatman International, Maidstone, England), phenyl Sepharose 6FF (low sub, level of phenyl substitution 20 μmole per ml gel) column (Pharmacia Biotech, Piscataway, N.J.), and another anion exchange column, MonoQ, on Pharmacia's fast-performance liquid chromatography system. A complete description of the purification protocol is described in Example 7.

BAMT [3] = test: Effectors: BAMT enzyme assay with cations in assay buffer; format: biochemical, Antirrhinum majus; conditions: for Stimulation of BAMT activity (factor): cation at 5 mM in assay buffer
BAMT [4] = molecular target: T2, BAMT; test: Specific activity of BAMT purified from snapdragon petals; format: biochemical; conditions: from 25 g fresh petal material after Mono-Q
Experimental: After the enzyme was loaded, the column was washed with 3 mL 300 mM KCl in buffer A and eluted with a linear reverse gradient (4 mL) from 300 mM KCl in buffer A to water followed by an additional 11 mL of water. Fractions of 0.7 ml were collected into tubes containing 100 μL 1 M KCl, 100 μL glycerol, 100 μL of 0.5 M Bis-Tris-HCl, pH 6.9 and 1 μL of 14 M β-mercaptoethanol. […] The column was previously equilibrate with 100 mM KCl in buffer A. After loading the protein onto the column, the column was washed with 100 mM KCl in buffer A and the bound protein was eluted using a 10 mL linear (100-400 mM) gradient of KCl in buffer A followed by an additional 5 mL of buffer A containing 400 mM KCl, at flow rate of 0.25 mL/min. The enzyme consistently eluted at about 360 mM KCl. Fractions (0.5 mL each) were collected and protein content and purity were examined by SDS-PAGE gel electrophoresis followed by staining of the gel with Coomassie Brilliant Blue. Fractions which had the largest amount of pure protein were used for N-terminal sequencing, internal peptide sequencing, and initial enzyme characterization.

BAMT [5] = system: BAMT
Experimental: The optimum pH for BAMT activity was determined using two buffer systems. Reactions were carried out in 50 mM Tris-HCl buffer with pH ranging from 6.5 to 9.0 and in 50 mM Tris/Na phosphate/Na citrate buffer with pH ranging from 4.0 to 9.5. Final results are an average of four independent assays.

BAMT [6] = test: Kinetic properties of purified plant and E. coli expressed BAMT proteins; format: biochemical, Antirrhinum majus; conditions: purified protein; for KmSAM: Table 4
[7] = molecular target: the molecule itself; test: gel filtration on Superdex 200-HR (100 kDa native) against SDS-PAGE (49 kDa subunit)
BAMT [8] = test: Specific activity of plant BAMT expressed in E. coli BL21 (DE3) cells
Experimental: The E. coli.-expressed BAMT protein was purified by nickel-based affinity chromatography (2.5 ml bed volume) according to the manufacturer's protocol (Novagen, Inc).

BAMT [9] = conditions: read-out: Km of plant BAMT protein for benzoic acid; Murfitt, et al., 2000; cited from earlier work
SAMT = molecular target: T3, SAMT (Clarkia breweri, UniProt Q9SPV4); conditions: Ross et al., 1999, cited from earlier work
T3 sequence (Q9SPV4 1-359): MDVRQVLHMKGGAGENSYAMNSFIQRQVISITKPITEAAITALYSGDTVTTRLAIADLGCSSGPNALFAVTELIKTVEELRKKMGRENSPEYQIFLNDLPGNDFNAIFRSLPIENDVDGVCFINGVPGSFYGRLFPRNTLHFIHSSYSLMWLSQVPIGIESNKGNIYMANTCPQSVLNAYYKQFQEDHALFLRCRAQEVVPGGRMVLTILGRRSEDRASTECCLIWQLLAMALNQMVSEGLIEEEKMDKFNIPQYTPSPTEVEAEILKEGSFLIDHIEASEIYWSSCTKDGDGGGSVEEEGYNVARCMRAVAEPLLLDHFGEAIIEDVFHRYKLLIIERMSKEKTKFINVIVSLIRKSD

[10] = read-out: KmBA (Km for benzoic acid)

Molecule: Nc1ncnc2c1ncn2[C@@H]1O[C@H](CSCC[C@H](N)C(=O)O)[C@@H](O)[C@H]1O [SAH, S-adenosyl-L- homocysteine]
- Ki (E. coli BAMT protein; Ki value of SAH for BA, noncompetitive with respect to BA, SAM fixed at 150 μM): 14 µM
- Ki (E. coli BAMT protein; Ki value of SAH for SAM, competitive with respect to SAM, BA fixed at 4 mM): 7 µM

Molecule: O=C(O)/C=C/c1ccccc1 [trans-cinnamic acid]
- BAMT activity with compound as substrate (BAMT [1]): no activity
- BAMT activity with compound as substrate (BAMT [2]): no activity was detected

Molecule: O=C(O)/C=C/c1cccc(O)c1 [3-coumaric acid]
- BAMT activity with compound as substrate (BAMT [2]): no activity was detected

Molecule: [K+] [K^+]
- Stimulation of BAMT activity (factor) (BAMT [3]): 2

Molecule: OCc1ccccc1 [benzyl alcohol]
- BAMT activity with compound as substrate (BAMT [2]): no activity was detected
- BAMT activity with compound as substrate (BAMT [2]; listed as benzylalcohol): no activity

Molecule: O=C(O)/C=C/c1ccc(O)cc1 [4-coumaric acid]
- BAMT activity with compound as substrate (BAMT [2]): no activity was detected

Molecule: O=C(O)c1ccc(O)cc1 [4-hydroxybenzoic acid]
- BAMT activity with compound as substrate (BAMT [2]): no activity was detected

Molecule: O=C(O)c1cccc(O)c1 [3-hydroxybenzoic acid]
- BAMT activity with compound as substrate (BAMT [2]): no activity was detected

Molecule: O=C(O)c1ccccc1O [salicylic acid]
- BAMT activity with compound as substrate (BAMT [1]): no activity
- BAMT activity with compound as substrate (BAMT [2]): no activity was detected

Molecule: O=C(O)/C=C/c1ccccc1O [2-coumaric acid]
- BAMT activity with compound as substrate (BAMT [2]): no activity was detected

Molecule: [Mg+2] [Mg^2+]
- Effect on BAMT activity (BAMT [3]; 5 mM Mg2+ in the assay reaction): not affected

Molecule: S-adenosyl-L-methionine:benzoic acid carboxyl methyltransferase [BAMT]
- Specific activity of purified BAMT protein (BAMT [4]): 327 pkat/mg protein
- Percent of maximum activity (BAMT [5]; at both pH 6.5 and 8.5): 65%
- Enzyme activity as percent of the optimal value (BAMT [5]; at pH 5.5 and 9.5): about 50%
- Km (BAMT [6]; read-out: Km for SAM): 28 µM
- Km (BAMT [6]; [10]): 1100 µM

Molecule: N [NH4^+]
- Stimulation of BAMT activity (factor) (BAMT [3]): 2

B1: S-adenosyl-L-methionine:benzoic acid carboxyl methyltransferase (BAMT) from snapdragon (Antirrhinum majus) petals (enzyme)
chain: T1 sequence (Q9FYZ9 1-364)
notes: Native protein from upper and lower petal lobes; The native enzyme is reported as a homodimer (100 kDa by gel filtration, 49 kDa on SDS-PAGE); In the immunoblots it was the denatured monomer after SDS-PAGE; also called BAMT protein; plant BAMT
- binding result [7]: binds

B2: E. coli Met1: E. coli expressed snapdragon BAMT starting with the first methionine codon, N-terminal 6×His tag (protein, UniProt Q9FYZ9 1-364, looked up)
chain: T1 sequence (Q9FYZ9 1-364)
modifications: full-length N-terminal 6xHis tag
- Vmax (BAMT [6]): 300 pkat/mg
- kcat (turnover number of enzyme) (BAMT [6]): 0.03 s⁻¹
- KmSAM (BAMT [6]): 87 μm
- Km (BAMT [6]; read-out: Km for SAM): 87 µM
- Km (BAMT [6]; [10]): 1500 µM
- Specific activity, crude lysates (BAMT [8]; E. coli BL21 (DE3) after IPTG induction): 9 pkat/mg protein
- Specific activity of purified recombinant enzyme (BAMT [8]; purified from E. coli): 135 pcat/mg protein
- Specific activity, purified protein (BAMT [8]; purified from E. coli on nickel column): 135 pkat/mg protein

B3: Plant: BAMT protein purified from upper and lower petal lobes of snapdragon flowers (protein)
chain: T1 sequence (Q9FYZ9 1-364)
- Vmax (BAMT [6]): 220 pkat/mg
- kcat (turnover number of enzyme) (BAMT [6]): 0.02 s⁻¹
- KmSAM (BAMT [6]): 28 μm
- Km (BAMT [6]; read-out: Km for SAM): 28 µM
- Km (BAMT [6]; [10]): 1100 µM
- Km (BAMT [9]): 1000 µM

B4: SAM:salicylic acid carboxyl methyl transferase (protein, listed as Clarkia breweri)
chain: T3 sequence (Q9SPV4 1-359)
notes: salicylic acid carboxyl methyl transferase from C. breweri
- Km (SAMT; read-out: Km value for BA): 190 µM
- Km (SAMT; read-out: Km value for SA): 24 µM
- Km (SAMT; read-out: Km value for SAM): 9 µM
